Results on three molecules are retold here after patent US20230181756A1 (Novartis, published 2023).

One experiment concerns the target T1, CXCR4 (UniProt P61073 1-352, limits assumed).
T1 construct: whole, on cells; also called HEK293-CXCR4
As to the kind of experiment: FACS on HEK293-CXCR4 cells.

The target in experiment [1] is T2, human CCR7 (human, UniProt P32248 25-378).
T2 construct: The assay field tells which; also called hCCR7; NIH3T3.hCCR7
T2 sequence: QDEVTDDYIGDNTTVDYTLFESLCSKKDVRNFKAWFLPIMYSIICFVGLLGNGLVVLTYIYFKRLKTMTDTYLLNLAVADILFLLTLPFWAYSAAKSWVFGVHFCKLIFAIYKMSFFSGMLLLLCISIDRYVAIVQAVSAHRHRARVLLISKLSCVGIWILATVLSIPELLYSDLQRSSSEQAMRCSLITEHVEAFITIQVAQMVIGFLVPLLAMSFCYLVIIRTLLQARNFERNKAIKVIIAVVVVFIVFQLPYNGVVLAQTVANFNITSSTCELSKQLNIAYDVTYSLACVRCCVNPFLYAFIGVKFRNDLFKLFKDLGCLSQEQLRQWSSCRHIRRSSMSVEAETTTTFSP
In words: ELISA on CCR7-expressing VLPs, pH 5.8 buffer. For orientation: In an ELISA, binding on a coated surface is turned into a signal by an enzyme label.

The target of a further experiment is T3, CCR6 (UniProt P51684 1-374, limits assumed).
T3 construct: whole, on cells; also called PF382 cells (CCR7-/CCR9+/CCR6+)
T3 sequence (looked up): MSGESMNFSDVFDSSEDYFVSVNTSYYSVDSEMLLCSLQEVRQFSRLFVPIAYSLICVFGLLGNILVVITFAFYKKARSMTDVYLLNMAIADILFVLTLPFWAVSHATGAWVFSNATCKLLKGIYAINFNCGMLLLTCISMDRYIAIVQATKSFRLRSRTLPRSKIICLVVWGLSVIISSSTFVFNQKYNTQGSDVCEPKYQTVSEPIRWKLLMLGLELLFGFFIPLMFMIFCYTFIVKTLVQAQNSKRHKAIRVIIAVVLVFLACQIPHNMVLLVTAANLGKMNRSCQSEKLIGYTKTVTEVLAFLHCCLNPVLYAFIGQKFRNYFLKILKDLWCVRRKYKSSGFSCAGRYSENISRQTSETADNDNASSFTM
As to the kind of experiment: FACS on PF382 cells (CCR7-/CCR9+/CCR6+).

The target of the next experiment is T4, CCR9 (UniProt P51686 1-369, limits assumed).
T4 construct: whole, on cells; also called PF382 cells (CCR7-/CCR9+/CCR6+)
T4 sequence (looked up): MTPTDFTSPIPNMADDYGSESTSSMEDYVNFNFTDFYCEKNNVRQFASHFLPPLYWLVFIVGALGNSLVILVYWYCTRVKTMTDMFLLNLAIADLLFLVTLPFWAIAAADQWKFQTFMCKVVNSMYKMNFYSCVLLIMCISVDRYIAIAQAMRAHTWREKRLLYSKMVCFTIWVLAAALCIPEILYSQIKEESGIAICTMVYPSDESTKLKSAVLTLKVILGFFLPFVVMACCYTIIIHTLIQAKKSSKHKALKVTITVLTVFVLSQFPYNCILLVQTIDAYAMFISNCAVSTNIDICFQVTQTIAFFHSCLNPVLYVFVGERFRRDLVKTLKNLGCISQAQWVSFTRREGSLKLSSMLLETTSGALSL
As to the kind of experiment: FACS on PF382 cells (CCR7-/CCR9+/CCR6+).

Experiment [2] concerns the target T2, human CCR7. In words: ELISA on CCR7-expressing VLPs, Kd at pH 5.8 over Kd at pH 7.4.
Experiment [3] concerns the target T2, human CCR7. In words: FACS titration, human CD4+ T cells from PBMC.
Experiment [4] addresses T2, human CCR7. As to the kind of experiment: ELISA on CCR7-expressing VLPs, pH 7.4 buffer.
The next experiment concerns the target T5, CCR8 (UniProt P51685 1-355, limits assumed).
T5 construct: whole, on cells; also called CHO-CCR8
In words: FACS on CHO-CCR8 cells.

In experiment [5] the target is T2, human CCR7. In words: cell-based or functional assay.
A further experiment has as its target T6, mouse CCR7 (mouse, UniProt P47774 25-378).
T6 construct: also called NIH3T3.mouse CCR7
T6 sequence: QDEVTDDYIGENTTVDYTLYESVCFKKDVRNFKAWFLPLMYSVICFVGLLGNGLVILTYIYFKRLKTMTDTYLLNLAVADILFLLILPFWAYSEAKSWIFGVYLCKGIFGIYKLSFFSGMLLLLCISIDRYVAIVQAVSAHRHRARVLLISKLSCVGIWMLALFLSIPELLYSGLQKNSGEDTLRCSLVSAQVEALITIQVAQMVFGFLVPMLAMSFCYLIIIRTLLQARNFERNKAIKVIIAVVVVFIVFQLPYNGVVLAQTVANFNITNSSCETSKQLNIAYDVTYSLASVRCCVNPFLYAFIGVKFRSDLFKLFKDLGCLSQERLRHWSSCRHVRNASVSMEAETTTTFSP
In words: FACS titration, NIH3T3 cells expressing mouse CCR7.

The target of experiment [6] is T2, human CCR7. As to the kind of experiment: FACS titration, Jeko-1 cancer cells (CCR7+).
A further experiment addresses T7, rat CCR7 (rat, UniProt P47774 25-378 (mouse entry)).
T7 construct: also called NIH3T3.rat CCR7
T7 chain: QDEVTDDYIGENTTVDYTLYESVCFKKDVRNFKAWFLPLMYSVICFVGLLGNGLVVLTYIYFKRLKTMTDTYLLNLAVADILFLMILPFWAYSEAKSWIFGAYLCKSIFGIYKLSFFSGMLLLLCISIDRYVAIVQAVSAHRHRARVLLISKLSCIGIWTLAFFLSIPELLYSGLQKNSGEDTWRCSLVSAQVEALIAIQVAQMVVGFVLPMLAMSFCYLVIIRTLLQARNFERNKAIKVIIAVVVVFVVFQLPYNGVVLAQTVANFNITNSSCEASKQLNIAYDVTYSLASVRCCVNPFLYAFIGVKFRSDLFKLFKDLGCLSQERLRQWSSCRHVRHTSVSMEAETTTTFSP
In words: FACS titration, NIH3T3 cells expressing rat CCR7.

Experiment [7] has as its target T2, human CCR7. In words: FACS titration, NIH3T3 cells expressing human CCR7.
In experiment [8] the target is T2, human CCR7. As to the kind of experiment: FACS on DEL cells, antibody titrated to 100 nM, panel 'ligand 0uM' (no CCL19), anti-hFc.PE detection.
The target of experiment [9] is T2, human CCR7. As to the kind of experiment: FACS titration, human CD4+ T cells (receptor density <2,000).
For experiment [10], the target named is T8, recombinant hCCR7 (Origene #TP306614) (human, UniProt P32248 25-378, limits assumed).
T8 construct: Bought protein coated on ELISA plates; also called recombinant CCR7
T8 sequence (looked up): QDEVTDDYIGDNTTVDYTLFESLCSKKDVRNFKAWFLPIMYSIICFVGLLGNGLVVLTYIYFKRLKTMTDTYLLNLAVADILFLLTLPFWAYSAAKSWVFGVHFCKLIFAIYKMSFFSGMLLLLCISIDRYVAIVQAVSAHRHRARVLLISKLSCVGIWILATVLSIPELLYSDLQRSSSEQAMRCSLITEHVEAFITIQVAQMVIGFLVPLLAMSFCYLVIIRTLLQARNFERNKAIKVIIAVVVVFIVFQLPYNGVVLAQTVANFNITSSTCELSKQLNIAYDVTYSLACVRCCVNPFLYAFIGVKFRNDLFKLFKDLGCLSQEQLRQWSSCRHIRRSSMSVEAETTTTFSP
In words: ELISA on plate-coated recombinant hCCR7, antibody titrated, anti-hFc-HRP detection, OD 650 nm.

The target of experiment [11] is T2, human CCR7. As to the kind of experiment: FACS titration, DEL cancer cells (receptor density ~100,000).
Experiment [12] addresses T8, recombinant hCCR7 (Origene #TP306614). As to the kind of experiment: ELISA, recombinant CCR7 coated at 3.5 ug/ml, antibody titrated.
Experiment [13] concerns the target T2, human CCR7. In words: FACS titration, NIH3T3.hCCR7 cells (receptor density >1,000,000).
Experiment [14] deals with T2, human CCR7. As to the kind of experiment: cell-based or functional assay. The source holds these as a separate data set.
Experiment [15] concerns the target T2, human CCR7. As to the kind of experiment: FACS on DEL cells, antibody titrated to 100 nM together with a constant 1 uM CCL19 (competitor), panel 'ligand 1uM', anti-hFc.PE detection.

T1 sequence (P61073 whole entry): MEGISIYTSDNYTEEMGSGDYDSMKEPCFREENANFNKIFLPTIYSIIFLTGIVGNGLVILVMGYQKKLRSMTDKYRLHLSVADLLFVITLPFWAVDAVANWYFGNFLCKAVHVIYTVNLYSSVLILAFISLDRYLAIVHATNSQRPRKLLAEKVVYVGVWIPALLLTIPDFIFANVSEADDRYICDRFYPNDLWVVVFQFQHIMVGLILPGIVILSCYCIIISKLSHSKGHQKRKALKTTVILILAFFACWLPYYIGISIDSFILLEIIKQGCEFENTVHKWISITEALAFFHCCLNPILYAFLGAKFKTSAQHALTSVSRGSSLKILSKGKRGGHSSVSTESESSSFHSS
T5 sequence (P51685 whole entry): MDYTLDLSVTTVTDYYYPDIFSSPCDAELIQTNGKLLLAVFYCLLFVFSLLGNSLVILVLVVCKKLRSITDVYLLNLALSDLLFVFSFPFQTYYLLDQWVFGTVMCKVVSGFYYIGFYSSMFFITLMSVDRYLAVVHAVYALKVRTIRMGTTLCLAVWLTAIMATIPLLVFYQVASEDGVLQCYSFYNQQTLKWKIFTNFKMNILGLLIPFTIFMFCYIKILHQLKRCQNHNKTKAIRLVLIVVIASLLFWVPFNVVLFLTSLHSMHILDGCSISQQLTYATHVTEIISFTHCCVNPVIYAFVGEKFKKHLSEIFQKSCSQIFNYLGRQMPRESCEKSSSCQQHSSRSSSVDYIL

B1: 684E12 humanized CysMab (Fc Wild Type) (antibody, V domains shown)
VH: EVQLVESGGGLVKPGGSLRLSCAASGFTFSNFAMSWVRQAPGKGLEWVSTISTGGTYTYYPDSVKGRFTISRDNAKNSLYLQMNSLRAEDTAVYYCARRGYSGVDKWGQGTTVTVSS
VL: DVVMTQSPLSLPVTLGQPASISCKSGQSLLDSTGKTYLNWFLQRPGQSPRRLIYLVSKLDSGVPDRFSGSGSGTDFTLKISRVEAEDVGVYYCWQGTHFPQTFGGGTKLEIK
notes: Human IgG1 kappa with CysMab cysteines; also called Humanized CysMab antibody 684E12
For orientation: Kd means the equilibrium constant for the complex coming apart. The term EC50 denotes the concentration that produces a half-maximal response. A lower EC50 goes with higher potency in that assay. For the molecule B1, the binding result with CXCR4, with CCR6, with CCR9 and with CCR8 was “no binding (tested: 5 ug/ml)” throughout. Besides, the Kd came out at 0.504 nM with human CCR7 [1] and 0.0374 nM in the experiment with human CCR7 [4]. Moreover, the “fold change (pH 5.8/7.4)” value with human CCR7 [2] amounted to 13 fold. The molecule further returned a concentration for a half-maximal effect (EC50) with human CCR7 [3] of 6.7 nM.

B2: 684E12 non-humanized CysMab (antibody, human IgG1, kappa, V domains shown)
VH: EVHLVESGGGLVKPGGSLKLSCAASGFTFSNFAMSWVRQTPEKRLEWVATISTGGTYTYYPDSVKGRFTISRDNAKKTLYLQMSSLRSEDTAMYYCTRRGYDGVDKWGQGTTLTVSS
VL: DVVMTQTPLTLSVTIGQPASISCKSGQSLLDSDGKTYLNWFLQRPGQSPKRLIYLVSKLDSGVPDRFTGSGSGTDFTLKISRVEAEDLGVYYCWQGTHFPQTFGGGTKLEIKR
notes: Chimeric human IgG1 kappa with CysMab cysteines and wild type Fc; also called Parental 684E12 hIgG1 CysMab; Non-humanized CysMab antibody 684E12
B2: the “ADCC activity; IC50 (nM); reporter assay, JVM2 targets and Jurkat-V158 effectors” value with human CCR7 [5] stood at 2.63 nM. The binding result with mouse CCR7 and with rat CCR7 was “no binding” each time. Further, the EC50 is 12 nM with human CCR7 [6] and greater than 30 nM in the experiment with human CCR7 [7].

B3: Humanized 674J13.CysMab.DAPA (antibody, human IgG1, kappa, V domains shown)
VH: DVQLQESGPGLVKPSQTLSLTCTVSGYSITSGYSWHWIRQHPGKGLEWMAHIHSSGSTNYNPSLKSRITISRDTSKNQFSLKLSSVTAADTAVYYCARGGVQAFAYWGQGTLVTVSS
VL: EIVLTQSPATLSASPGERVTMSCSASSSVIYMHWYQQKPGQAPRRWIYDTSKLASGVPARFSGSGSGTDYTLTISSMEPEDAAVYYCQQWSSNPLTFGQGTKLEIKR
notes: Human IgG1 kappa with D265A/P329A and CysMab cysteines; also called 674J13 (Humanized, CysMab DAPA)
Usually EC50 (read off the curve) stands for the midpoint of the concentration-response curve. As for B3, the “EC50 (read off the curve)” value with human CCR7 [8] was roughly 2 nM. In addition, the EC50 with human CCR7 [9] is roughly 2 nM. The 50% effective concentration (EC50 (read off the curve)) in experiment [10] is roughly 0.07 nM. In addition, in the experiment with human CCR7 [11], a half-maximal effect (EC50) was put at 0.47 nM. Moreover, in [12], the Kd is 0.006 nM. Besides, in the experiment with human CCR7 [13], the EC50 amounted to 0.64 nM. In the experiment with human CCR7 [14], the “pHrodo (6 h MFI), internalization, CD4+ T cells (receptor numbers 2000)” value was 402 MFI; the “pHrodo (6 h MFI), internalization, CMLT1 cells (receptor numbers 19583)” value was found to be 561 MFI; the “pHrodo (6 h MFI), internalization, DEL cells (receptor numbers 110685)” value stood at 3780 MFI; the “pHrodo (6 h MFI), internalization, JVM3 cells (receptor numbers 8717)” value is 146 MFI. Moreover, in the experiment with human CCR7 [14], the “pHrodo (6 h MFI), internalization, Jeko-1 cells (receptor numbers 28852)” value amounted to 1390 MFI; the “pHrodo (6 h MFI), internalization, KE97 cells (receptor numbers 152093)” value is 4420 MFI; the “pHrodo (6 h MFI), internalization, L540 cells (receptor numbers 167549)” value was 11800 MFI; the “pHrodo (6 h MFI), internalization, L1236 cells (receptor numbers 61602)” value came to 5820 MFI. Besides, in the experiment with human CCR7 [14], the “pHrodo (6 h MFI), internalization, MJ cells (receptor numbers 111121)” value turned out to be 3260 MFI; the “pHrodo (6 h MFI), internalization, MOTN1 cells (receptor numbers 84200)” value amounted to 2540 MFI; the “pHrodo (6 h MFI), internalization, Mec2 cells (receptor numbers 50840)” value was 3000 MFI. Further, the half-maximal effective concentration (EC50 (read off the curve)) with human CCR7 [15] is roughly 2 nM.
